± gives the standard deviation of the averaged measurements.
The sequences below were run on Saccharomyces cerevisiae (assay: protein stability index of tFT-peptide fusion (C-terminal peptide) (PSI (0-1 scale)); higher = more stable (slower turnover)). Details: genetic background: wild type; temperature: 30 C.
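Further: PSI is a weighted mean of sequencing reads over stability bins, variants kept only with over 10 reads, mCherry proximal and sfGFP distal, peptide attached via GGGS linker.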

Sequence	protein stability index
SFASGFFVVKDF	0.658 ± 0.031
SFCHWHLFPPRS	0.711 ± 0.041
SFFLSFFSPLVL	0.63 ± 0.038
SFFSPFPSRICS	0.829 ± 0.032
SFHIAARFRSLP	0.719 ± 0.062
SFLFDSPYFVAI	0.699 ± 0.018
SFLPRVVVRSTP	0.667 ± 0.015
SFLSMDANDLLS	0.7 ± 0.029
SFLVPRARPVLL	0.688 ± 0.041
SFMVISSGSSVR	0.725 ± 0.023
SFNLFFVVSPAL	0.608 ± 0.097
SFPRPPSSPSPL	0.714 ± 0.021
SFRASVSAPCLF	0.683 ± 0.067
SFRFVLVQCSGV	0.5601 ± 0.0046
SFSFPPHPLKSL	0.723 ± 0.1
SFVECVDVMGRW	0.757 ± 0.056
SFYSSPTVPFLP	0.717 ± 0.044
SGAGGGVWWGGV	0.73 ± 0.0092
SGAGRRMGGARE	0.657 ± 0.051
SGAIDRSAYIDG	0.622 ± 0.028
SGCGVRFLLCRL	0.801 ± 0.065
SGCIYLLQTPME	0.636 ± 0.012
SGCSWRGSPVKE	0.636 ± 0.0076
SGGGCVYRGGRG	0.633 ± 0.015
SGHELLGSVFRR	0.681 ± 0.076
SGIILEKGGGGN	0.679 ± 0.026

Sequence	protein stability index
SGLGRLRSGRVL	0.698 ± 0.012
SGLRHLLPSGHN	0.711 ± 0.041
SGLRLQLLVGHT	0.632 ± 0.013
SGNALSGVIRNC	0.783 ± 0.045
SGPGGWNREVGR	0.6841 ± 0.0024
SGPHIAFYTSCP	0.73 ± 0.053
SGRAGAPSVIRR	0.694 ± 0.053
SGRDWYHSLGGA	0.742 ± 0.052
SGRGLPLGGAFD	0.727 ± 0.026
SGRSQHFVSFLR	0.664 ± 0.018
SGRSSQNHRCWI	0.684 ± 0.012
SGSGGGGMRLGS	0.701 ± 0.026
SGSGLRIIRSSP	0.657 ± 0.011
SGSIRHSSPLPT	0.75 ± 0.12
SGTRIQFRLGMS	0.723 ± 0.064
SGVAAGLVAGSL	0.673 ± 0.12
SGVIRLRAVELF	0.5726 ± 0.0017
SGVKKGRSEGKR	0.629 ± 0.051
SGVSICLSGMGK	0.611 ± 0.017
SGWASVCARAAI	0.745 ± 0.06
SGWRYPFGCGAS	0.763 ± 0.1
SGYWWIYMSELS	0.666 ± 0.019
SHILPCTCPLAA	0.574 ± 0.044
SHLPPPSRFSSD	0.677 ± 0.077
SHPPPTLLSYLP	0.746 ± 0.0079
SHPRHSHLPFSP	0.725 ± 0.079

Sequence	protein stability index
SHRTHPAAPHAP	0.738 ± 0.056
SHSRRSNMTLFV	0.721 ± 0.073
SHTNVILQDVTI	0.655 ± 0.087
SIDPAEFSSTLP	0.7125 ± 0.0029
SIEEKRNKIDKI	0.769 ± 0.2
SIENEYAMERKK	0.707 ± 0.056
SIKDKFIVITLK	0.629 ± 0.11
SIKKQLQKKKQK	0.743 ± 0.1
SIKNTQRFKIRN	0.663 ± 0.034
SIRGNGCVVCGT	0.708 ± 0.093
SISPWFFFFLDW	0.579 ± 0.014
SISSFLSLLFFR	0.639 ± 0.062
SIVRRVRDRIGR	0.641 ± 0.038
SIWLPPSRPPPS	0.766 ± 0.015
SKGISARLAREG	0.653 ± 0.038
SKKHIKKKQKRK	0.687 ± 0.053
SKKKKRRKEQEK	0.745 ± 0.03
SKLTRHVDLHGS	0.6898 ± 0.0017
SKLTSRPLSKVP	0.718 ± 0.048
SKQGNKADGCAK	0.603 ± 0.054
SKRQKKENLKET	0.633 ± 0.044
SKRRLTGYRKTK	0.669 ± 0.052
SKSDRNMQTIHY	0.605 ± 0.067
SKYKITIYWREE	0.568 ± 0.0096
SLAAPFPSLPNF	0.652 ± 0.036
SLAASPPSPLLP	0.63 ± 0.09

Sequence	protein stability index
SLAFSVFWSIFL	0.585 ± 0.015
SLALASTLRLPP	0.69 ± 0.047
SLASHVLSRPTL	0.7 ± 0.047
SLCRQHSVFSLA	0.653 ± 0.044
SLDILVSVDGRL	0.6546 ± 0.001
SLERWNPGGSGV	0.656 ± 0.025
SLGLSRSRLPKN	0.682 ± 0.043
SLHPSPPPLLPP	0.642 ± 0.093
SLIPSRSLGFLH	0.65 ± 0.05
SLLPPRLPPPPF	0.633 ± 0.016
SLLPSHFASFSP	0.744 ± 0.03
SLLRLFFLALSY	0.542 ± 0.071
SLLSFLLRSFFP	0.722 ± 0.065
SLMCFDLSTFLG	0.634 ± 0.08
SLMLPIFLPLSR	0.698 ± 0.04
SLPAPRLGCIPC	0.64 ± 0.044
SLPFCFIPVAPF	0.756 ± 0.058
SLPGPRTELPLA	0.644 ± 0.034
SLPLLSLPLLDF	0.535 ± 0.02
SLPPHHLLISNA	0.645 ± 0.028
SLPPPSSHPPPL	0.7 ± 0.09
SLPQYPSGPTLT	0.709 ± 0.029
SLQEIWRSKAKV	0.676 ± 0.054
SLRESTPFCSRP	0.553 ± 0.18
SLRLSRFLLTAP	0.5536 ± 0.0031
SLRPPSTFRRSC	0.71 ± 0.019

Sequence	protein stability index
SLRPRPSLFPPP	0.7196 ± 0.00099
SLSPLLVILANL	0.613 ± 0.05
SLSTSFSSRPPS	0.704 ± 0.089
SLTAPPNLASPW	0.705 ± 0.089
SLTENRGRKKKK	0.664 ± 0.0082
SLVLLNQHARER	0.79 ± 0.036
SLVLRPTGILLI	0.536 ± 0.019
SLWRLKESYRQS	0.673 ± 0.039
SLWTDALFLCLT	0.727 ± 0.19
SMVGCVKTPIEQ	0.659 ± 0.023
SMVGYPLPVSRN	0.671 ± 0.039
SMVRYNDFPRPL	0.689 ± 0.081
SNNWLEKTGAMT	0.659 ± 0.03
SNPCLPPPSFAS	0.77 ± 0.019
SNPFPTILSSSS	0.736 ± 0.037
SNQKLLGQDIDN	0.659 ± 0.024
SNRSAPWSRFSL	0.68 ± 0.038
SNTKLIGLIVIG	0.539 ± 0.043
SNTKPTCSNQQS	0.688 ± 0.077
SPAQLSYLFPAP	0.7928 ± 0.0039
SPARLRHSLSLP	0.723 ± 0.014
SPASPPPPSPLL	0.695 ± 0.028
SPCRAGRPAGLR	0.729 ± 0.071
SPCSSDPLYSFA	0.762 ± 0.069
SPEPSFPPLLLP	0.715 ± 0.015
SPFPAWPIPASV	0.612 ± 0.036

Sequence	protein stability index
SPFPSPVLPPHT	0.7153 ± 0.006
SPGPRLSTRLRQ	0.701 ± 0.077
SPIRLPATSPSR	0.639 ± 0.046
SPKDKARMQKQS	0.602 ± 0.063
SPLFFPSSPPYP	0.751 ± 0.023
SPLHLFHPPLLH	0.729 ± 0.023
SPLNLRIPGAPT	0.675 ± 0.034
SPLPHRLFPFWS	0.79 ± 0.015
SPLPLLRPPSSH	0.593 ± 0.047
SPLPSSPRSVPP	0.744 ± 0.094
SPLPYTPPLRAF	0.5238 ± 0.0029
SPLSLPSPATFP	0.688 ± 0.05
SPLSRSRPKSYL	0.75 ± 0.072
SPLSSSDGSAAI	0.73 ± 0.022
SPPALPPFLAPL	0.72 ± 0.1
SPPCPPPHPHPP	0.597 ± 0.012
SPPCRTYFAECD	0.713 ± 0.053
SPPGPNQVARPP	0.6873 ± 0.0057
SPPHPPPRPPLL	0.733 ± 0.041
SPPLPPPSPTPP	0.699 ± 0.016
SPPLSLPPPGQS	0.671 ± 0.073
SPPLVFPTLLPL	0.7101 ± 0.0029
SPPPHPPLRFLP	0.667 ± 0.049
SPPPHSTPSSTG	0.712 ± 0.054
SPPPIPPPPPSR	0.726 ± 0.042
SPPPLPPPLSRP	0.638 ± 0.067

Sequence	protein stability index
SPPPLPPPTLPT	0.791 ± 0.084
SPPPLPPTPPPL	0.7135 ± 0.0055
SPPPLPSPSPPP	0.687 ± 0.044
SPPPPLHPALPA	0.656 ± 0.083
SPPPPPPAPPPP	0.664 ± 0.042
SPPPPPPPLPPA	0.731 ± 0.037
SPPPRHLLSPRH	0.697 ± 0.0077
SPPPSSPPAPPR	0.717 ± 0.11
SPPRLPTPPPLR	0.705 ± 0.022
SPPRPPAPPSPT	0.701 ± 0.014
SPPRPPCLPLTP	0.713 ± 0.048
SPPSPLALSLRF	0.707 ± 0.025
SPPSPLYFCSRF	0.661 ± 0.015
SPPSPPALTPSP	0.643 ± 0.048
SPRLDPLFRSPP	0.712 ± 0.017
SPRNIVFQPLSP	0.622 ± 0.069
SPRRPPQHPTLL	0.65 ± 0.016
SPRTVCPELHFI	0.691 ± 0.044
SPRVLSLLLRSM	0.5811 ± 0.0036
SPRWAPPLPAWP	0.712 ± 0.014
SPSLSFPGIPLF	0.673 ± 0.052
SPSPALPPRIRF	0.818 ± 0.15
SPSPHSPHPTPH	0.738 ± 0.085
SPSPPPRRYLPL	0.757 ± 0.073
SPSPQPLRRAHP	0.698 ± 0.043
SPSPSPPPAISI	0.657 ± 0.015

Sequence	protein stability index
SPSSRTTNTHPA	0.694 ± 0.11
SPTAHAPALPSP	0.692 ± 0.049
SPTPPTAPPSPL	0.699 ± 0.015
SPTRNLPPFPPP	0.723 ± 0.054
SPVPPSPAPLLI	0.673 ± 0.018
SPVPRIRPPPLL	0.699 ± 0.053
SPVSPTSNSPAC	0.649 ± 0.085
SQCNRGSWRSPS	0.645 ± 0.0073
SQMCHREESVTV	0.712 ± 0.004
SQPRRELGRPRG	0.662 ± 0.022
SQSEGTLELINK	0.679 ± 0.043
SQTKRINSEKNN	0.654 ± 0.039
SRALNAPAPFLP	0.747 ± 0.044
SRELPPPLLRSS	0.692 ± 0.072
SRFAGVGGGGAR	0.667 ± 0.0071
SRFISTLPGLLA	0.708 ± 0.035
SRFRSGVAALPS	0.644 ± 0.033
SRFWLCGKCLWH	0.7051 ± 0.0045
SRGIRPYYRLLL	0.596 ± 0.0094
SRGSMLRRPLFV	0.571

From the supplement of paper PMC10724198
